Source: patent publication US5118793A, “Modified heparin cofactor II” (Washington University, priority 1991, dated 1992)

Legend:
[1] = tested on: chymotrypsin; experiment: Inhibition of chymotrypsin by rHCII, chromogenic substrate assay; format: biochemical, human
Procedure: Inhibition of proteases by rHCII--Protease inhibition by rHCII was determined by incubating 90 μl of the partially purified rHCII (or the corresponding heparin-Sepharose fractions of a control lysate from cells transformed with pMON-5840) with 5 μl of the protease and 5 μl of either glycosaminoglycan or water in a disposable polystyrene cuvette at room temperature. Final concentrations of the proteases were as follows: thrombin, 15 nM; chymotrypsin, 21 nM; factor Xa, 16 nM; and kallikrein, 10 nM. After a specified period of time from 5 seconds (s) to 150 min, 300-500 μl of the appropriate chromogenic substrate was added, and the absorbance at 405 nm was recorded continuously for 100 s. The rate of change of absorbance was proportional to the concentration of active protease remaining in the incubation. […]
Protease inhibition by rHCII in the absence of a glycosaminoglycan--The time courses of inhibition of thrombin, factor Xa, kallikrein, and chymotrypsin by native rHCII(Leu444 →Arg) in the absence of a glycosaminoglycan are indicated in FIG. 3. […] The pseudo-first-order rate constants (k1) for protease inhibition were determined by fitting the data to the following equation: k1 t=1n([P]0 /[P]t), in which [P]0 =initial prolease activity and [P]t =protease activity at time=t. The second-order rate constants (k2) were then calculated by dividing k by the initial rHCII concentration. […]

[2] = tested on: thrombin; experiment: Inhibition of thrombin by rHCII, chromogenic substrate Chromozym TH, second-order rate constants; format: biochemical, human; details: for Increase in the rate constant for thrombin inhibition produced by dermatan sulfate: dermatan sulfate versus no GAG; for Increase in the rate constant for thrombin inhibition produced by heparin: heparin versus no GAG
Procedure: Inhibition of proteases by rHCII--Protease inhibition by rHCII was determined by incubating 90 μl of the partially purified rHCII (or the corresponding heparin-Sepharose fractions of a control lysate from cells transformed with pMON-5840) with 5 μl of the protease and 5 μl of either glycosaminoglycan or water in a disposable polystyrene cuvette at room temperature. Final concentrations of the proteases were as follows: thrombin, 15 nM; chymotrypsin, 21 nM; factor Xa, 16 nM; and kallikrein, 10 nM. After a specified period of time from 5 seconds (s) to 150 min, 300-500 μl of the appropriate chromogenic substrate was added, and the absorbance at 405 nm was recorded continuously for 100 s. The rate of change of absorbance was proportional to the concentration of active protease remaining in the incubation. The amounts added and concentrations of each substrate were as follows: Chromozym TH (thrombin), 500 μl, 0.1 mM; N-succinyl-Ala-Ala-Pro-Phe-p-nitroanilde (chymotrypsin), 300 μl, 0.5 mM; Spectrozyme FXa (factor Xa), 400 μl, 0.125 mM; and S-2302 (kallikrein), 300 μl, 0.4 mM.
Protease inhibition by rHCII in the absence of a glycosaminoglycan--The time courses of inhibition of thrombin, factor Xa, kallikrein, and chymotrypsin by native rHCII(Leu444 →Arg) in the absence of a glycosaminoglycan are indicated in FIG. 3. The incubations were performed under pseudo-first-order conditions, such that the initial concentration of rHCII was greater than the concentration of protease. The pseudo-first-order rate constants (k1) for protease inhibition were determined by fitting the data to the following equation: k1 t=1n([P]0 /[P]t), in which [P]0 =initial prolease activity and [P]t =protease activity at time=t. The second-order rate constants (k2) were then calculated by dividing k by the initial rHCII concentration. It was observed that rHCII(Leu444 →Arg) inhibits thrombin almost 100 times more rapidly than native rHCII in the absence of a glycosaminoglycan Furthermore, rHCII(Leu444 →Arg) inhibits factor Xa and kallikrein, while inhibition of these proteases by native rHCII is undetectable.
Inhibition of thrombin by rHCII in the presence dermatan sulfate or heparin--The time course of inhibition of thrombin was determined in the presence of various concentrations of dermatan sulfate or heparin.

[3] = tested on: thrombin; details: cited from earlier work

| Molecule | Effect of dermatan sulfate on the rate of inhibition of chymotrypsin [1] | Increase in the rate constant for thrombin inhibition produced by dermatan sulfate [2] | Increase in the rate constant for thrombin inhibition produced by heparin [2] | Increase of the rate of thrombin inhibition by heparin and dermatan sulfate [3] |
| --- | --- | --- | --- | --- |
| native rHCII: recombinant full-length heparin cofactor II expressed in E. coli; amino acid sequence identical to HCII purified from human plasma (protein, UniProt P05546 20-499, looked up, recombinant, E. coli) Heparin cofactor 2: GSKGPLDQLEKGGETAQSADPQWEQLNNKNLSMPLLPADFHKENTVTNDWIPEGEEDDDYLDLEKIFSEDDDYIDIVDSLSVSPTDSDVSAGNILQLFHGKSRIQRLNILNAKFAFNLYRVLKDQVNTFDNIFIAPVGISTAMGMISLGLKGETHEQVHSILHFKDFVNASSKYEITTIHNLFRKLTHRLFRRNFGYTLRSVNDLYIQKQFPILLDFKTKVREYYFAEAQIADFSDPAFISKTNNHIMKLTKGLIKDALENIDPATQMMILNCIYFKGSWVNKFPVEMTHNHNFRLNEREVVKVSMMQTKGNFLAANDQELDCDILQLEYVGGISMLIVVPHKMSGMKTLEAQLTPRVVERWQKSMTNRTREVLLPKFKLEKNYNLVESLKLMGIRMLFDKNGNMAGISDQRIAIDLFKHQGTITVNEEGTQATTVTTVGFMPLSTQVRFTVDRPFLFLIYEHRTSCLLFMGRVANPSRS | does not significantly increase | ~3500 fold | about 40 fold | – |
| rHCII(Leu444 →Arg): heparin cofactor II in which the leucine residue at position 444 is replaced by arginine; recombinant, expressed in E. coli (protein, UniProt P05546 20-499, looked up, variant L444R, recombinant, E. coli-expressed, heparin cofactor II in which the leucine residue at position 444 is replaced by arginine; recombinant, expressed in E. coli) Heparin cofactor 2: GSKGPLDQLEKGGETAQSADPQWEQLNNKNLSMPLLPADFHKENTVTNDWIPEGEEDDDYLDLEKIFSEDDDYIDIVDSLSVSPTDSDVSAGNILQLFHGKSRIQRLNILNAKFAFNLYRVLKDQVNTFDNIFIAPVGISTAMGMISLGLKGETHEQVHSILHFKDFVNASSKYEITTIHNLFRKLTHRLFRRNFGYTLRSVNDLYIQKQFPILLDFKTKVREYYFAEAQIADFSDPAFISKTNNHIMKLTKGLIKDALENIDPATQMMILNCIYFKGSWVNKFPVEMTHNHNFRLNEREVVKVSMMQTKGNFLAANDQELDCDILQLEYVGGISMLIVVPHKMSGMKTLEAQLTPRVVERWQKSMTNRTREVLLPKFKLEKNYNLVESLKLMGIRMLFDKNGNMAGISDQRIAIDLFKHQGTITVNEEGTQATTVTTVGFMPRSTQVRFTVDRPFLFLIYEHRTSCLLFMGRVANPSRS | – | much smaller effect | minimal effect | – |
| HCII: heparin cofactor II, a 65,600 dalton plasma glycoprotein, serpin that inhibits thrombin (protein, UniProt P05546 20-499, looked up) Heparin cofactor 2: GSKGPLDQLEKGGETAQSADPQWEQLNNKNLSMPLLPADFHKENTVTNDWIPEGEEDDDYLDLEKIFSEDDDYIDIVDSLSVSPTDSDVSAGNILQLFHGKSRIQRLNILNAKFAFNLYRVLKDQVNTFDNIFIAPVGISTAMGMISLGLKGETHEQVHSILHFKDFVNASSKYEITTIHNLFRKLTHRLFRRNFGYTLRSVNDLYIQKQFPILLDFKTKVREYYFAEAQIADFSDPAFISKTNNHIMKLTKGLIKDALENIDPATQMMILNCIYFKGSWVNKFPVEMTHNHNFRLNEREVVKVSMMQTKGNFLAANDQELDCDILQLEYVGGISMLIVVPHKMSGMKTLEAQLTPRVVERWQKSMTNRTREVLLPKFKLEKNYNLVESLKLMGIRMLFDKNGNMAGISDQRIAIDLFKHQGTITVNEEGTQATTVTTVGFMPLSTQVRFTVDRPFLFLIYEHRTSCLLFMGRVANPSRS | – | – | – | ~ 1000 fold |
